Measured values published in US20170368169A1 (MARENGO THERAPEUTICS, published 2017).

Legend:
[1] = biological target: T1, human mesothelin (generated from SEQ ID NO: 181) (human); experiment: ELISA on plate-bound antigen, molecule titrated 1 uM-1 pM
T1 construct: Antigen construct made in house; BirA was co-transfected when biotinylation was required; also called hMeso 1-7; hMesothelin
T1 chain: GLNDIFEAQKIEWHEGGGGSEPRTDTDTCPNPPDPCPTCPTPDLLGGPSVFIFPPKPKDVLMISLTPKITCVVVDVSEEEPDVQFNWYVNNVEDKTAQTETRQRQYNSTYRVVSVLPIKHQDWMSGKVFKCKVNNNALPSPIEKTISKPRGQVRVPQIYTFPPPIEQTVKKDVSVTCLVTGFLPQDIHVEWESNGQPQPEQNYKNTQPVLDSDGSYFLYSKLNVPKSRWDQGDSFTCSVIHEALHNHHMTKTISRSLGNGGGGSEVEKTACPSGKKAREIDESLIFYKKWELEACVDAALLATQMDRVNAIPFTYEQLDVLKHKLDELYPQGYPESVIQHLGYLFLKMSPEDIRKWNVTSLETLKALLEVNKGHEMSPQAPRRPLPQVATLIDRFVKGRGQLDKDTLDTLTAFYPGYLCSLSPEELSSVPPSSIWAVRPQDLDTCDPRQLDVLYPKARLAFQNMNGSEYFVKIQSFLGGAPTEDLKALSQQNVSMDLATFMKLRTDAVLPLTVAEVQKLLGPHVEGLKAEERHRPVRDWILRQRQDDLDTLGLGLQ

[2] = biological target: T2, human PD1L1 (generated from SEQ ID NO: 178) (human); experiment: as above
T2 construct: Antigen construct made in house; also called hPD1L1; human PDL1

EC50 [1]: 163 nM | EC50 [2]: 0.25 nM
B1: Multispecific molecule 5 (bispecific antibody, human IgG1, kappa, lambda)
heavy 1: not shown
light 1: not shown
heavy 2: EVQLLESGGGLVQPGGSLRLSCAASGFTFSSYIMMWVRQAPGKGLEWVSSIYPSGGITFYADTVKGRFTISRDNSKNTLYLQMNSLRAEDTAVYYCARIKLGTVTTVDYWGQGTLVTVSSASTKGPSVFPLAPSSKSTSGGTAALGCLVKDYFPEPVTVSWNSGALTSGVHTFPAVLQSSGLYSLSSVVTVPSSSLGTQTYICNVNHKPSNTKVDKRVEPKSCDKTHTCPPCPAPELLGGPSVFLFPPKPKDTLMISRTPEVTCVVVDVSHEDPEVKFNWYVDGVEVHNAKTKPREEQYNSTYRVVSVLTVLHQDWLNGKEYKCKVSNKALPAPIEKTISKAKGQPREPQVCTLPPSREEMTKNQVSLSCAVKGFYPSDIAVEWESNGQPENNYKTTPPVLDSDGSFFLVSKLTVDKSRWQQGNVFSCSVMHEALHNHYTQKSLSLSPGK
light 2: QSALTQPASVSGSPGQSITISCTGTSSDVGGYNYVSWYQQHPGKAPKLMIYDVSNRPSGVSNRFSGSKSGNTASLTISGLQAEDEADYYCSSYTSSSTRVFGTGTKVTVLGQPKANPTVTLFPPSSEELQANKATLVCLISDFYPGAVTVAWKADGSPVKAGVETTKPSKQSNNKYAASSYLSLTPEQWKSHRSYSCQVTHEGSTVEKTVAPTECS
notes: Mesothelin targeting arm and PDL1 targeting arm
